Source: US20250353921A1 (ASTRIA THERAPEUTICS, published 2025)
“And” between values parts separate entries of the source, which are not always exact repeats. Equal values may be shown once.

Key:
[1] = biological target: T1, human OX40 (TNFRSF4, CD134) on cells (human, UniProt P43489 29-277); experiment: cell-based or functional assay
T1 sequence: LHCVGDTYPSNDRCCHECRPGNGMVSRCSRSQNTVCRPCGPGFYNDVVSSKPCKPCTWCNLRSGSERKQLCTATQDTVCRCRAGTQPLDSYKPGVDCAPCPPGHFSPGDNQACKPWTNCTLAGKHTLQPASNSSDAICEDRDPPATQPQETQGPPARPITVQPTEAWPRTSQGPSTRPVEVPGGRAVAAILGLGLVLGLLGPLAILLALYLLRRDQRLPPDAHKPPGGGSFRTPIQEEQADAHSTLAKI

[2] = biological target: T1, human OX40 (TNFRSF4, CD134) on cells; experiment: cell-based or functional assay; remark: listed apart in the source
[3] = biological target: T1, human OX40 (TNFRSF4, CD134) on cells; experiment: flow cytometry on Jurkat-NFκB (OX40) cells, detection with anti-human IgG Fc-AF647
[4] = biological target: T1, human OX40 (TNFRSF4, CD134) on cells; experiment: flow cytometry on Jurkat-NF-κB-OX40 cells, detection with PE anti-human IgG Fc, occupancy in % of the saturating dose; in the presence of 5 µg/ml OX40L; time point not stated on the sheet
human OX40-CRD-avi-his [5] = biological target: T2, human OX40-CRD-avi-his (human, UniProt P43489 29-170, limits assumed); experiment: SPR Biacore T200, IgG captured by anti-human antibody, antigen as analyte, 1:1 Langmuir
T2 construct: Only the CRD region of the ECD was used
T2 sequence: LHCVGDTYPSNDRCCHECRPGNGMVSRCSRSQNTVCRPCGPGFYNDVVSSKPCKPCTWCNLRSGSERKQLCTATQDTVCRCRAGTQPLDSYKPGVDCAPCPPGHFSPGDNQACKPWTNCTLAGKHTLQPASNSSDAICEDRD

cynomolgus OX40-ECD-his [6] = biological target: T3, cynomolgus OX40-ECD-his (cynomolgus); experiment: as above
T3 construct: extracellular domain; also called Cyno OX40

[7] = biological target: T4, Human OX40 (Acro Biosystems, catalog NO: OXO-H5224) protein (human, UniProt P43489 29-216); experiment: SPR Biacore 8K+, single cycle kinetics, antibody captured by anti-human Fc, OX40 analyte, pH 7.4, 25 °C
T4 construct: Bought protein; also called recombinant human OX40 receptor; recombinant human OX40 protein
T4 sequence: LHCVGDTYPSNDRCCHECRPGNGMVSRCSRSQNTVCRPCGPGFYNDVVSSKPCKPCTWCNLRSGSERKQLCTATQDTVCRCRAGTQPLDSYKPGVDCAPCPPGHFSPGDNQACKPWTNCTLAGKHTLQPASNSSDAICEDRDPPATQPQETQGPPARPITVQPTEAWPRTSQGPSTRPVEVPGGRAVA

[8] = biological target: T1, human OX40 (TNFRSF4, CD134) on cells; experiment: cell-based or functional assay; remark: listed apart in the source
[9] = biological target: T4, Human OX40 (Acro Biosystems, catalog …); experiment: SPR Biacore 8K+
[10] = biological target: T1, human OX40 (TNFRSF4, CD134) on cells; experiment: cell-based or functional assay; remark: listed apart in the source
[11] = biological target: T1, human OX40 (TNFRSF4, CD134) on cells; experiment: cell-based or functional assay; remark: listed apart in the source
cynomolgus OX40-ECD-his [12] = biological target: T3, cynomolgus OX40-ECD-his; experiment: SPR, affinity for the extracellular domain (ECD) of cynomolgus monkey OX40
human OX40-CRD-avi-his [13] = biological target: T2, human OX40-CRD-avi-his; experiment: SPR, affinity for the extracellular domain (ECD) of human OX40; lower end of the range
[14] = biological target: T5, Human CD16a (F176V), Sino Biological 10389-H08H1 (human, UniProt P08637 17-208); experiment: SPR Biacore 8K+, ratio of KD values
T5 construct: also called FcγRIIIa176V

[15] = biological target: T6, Human CD32a (167 His), Sino Biological 10374-H08H1 (human, UniProt P12318 34-218); experiment: SPR Biacore 8K+, ratio of KD values
T6 construct: also called FcγRIIa167H
T6 sequence (looked up): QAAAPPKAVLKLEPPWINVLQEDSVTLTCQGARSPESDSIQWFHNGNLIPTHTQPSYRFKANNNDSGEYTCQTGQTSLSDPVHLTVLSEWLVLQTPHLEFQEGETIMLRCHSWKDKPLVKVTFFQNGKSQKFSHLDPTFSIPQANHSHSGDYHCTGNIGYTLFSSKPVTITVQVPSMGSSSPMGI

[16] = biological target: Human CD64 (FcγRI), Sino Biological 10256-H08H (human, UniProt P12314 16-288); experiment: SPR Biacore 8K+, ratio of KD values
[17] = biological target: T7, Human CD16a (176F), Sino Biological 10389-H08H (human, UniProt P08637 17-208); experiment: SPR Biacore 8K+, ratio of KD values
T7 construct: also called FcγRIIIa176F

[18] = biological target: T8, Human CD16b (NA2 allotype), Sino Biological 11046-H08H (human, UniProt O75015 17-200); experiment: SPR Biacore 8K+, ratio of KD values
T8 construct: also called FcγRIIIb

rabbit (rb) OX40 protein = biological target: T9, rabbit (rb) OX40 protein (rabbit); experiment: ELISA on coated OX40, ratio of EC50 values
T9 construct: also called Rabbit OX40

[19] = biological target: cynomolgus monkey (cy) OX40 protein (Example 5) (cynomolgus monkey); experiment: ELISA on coated OX40, ratio of EC50 values

T5 sequence (P08637 17-208 F176V limits assumed): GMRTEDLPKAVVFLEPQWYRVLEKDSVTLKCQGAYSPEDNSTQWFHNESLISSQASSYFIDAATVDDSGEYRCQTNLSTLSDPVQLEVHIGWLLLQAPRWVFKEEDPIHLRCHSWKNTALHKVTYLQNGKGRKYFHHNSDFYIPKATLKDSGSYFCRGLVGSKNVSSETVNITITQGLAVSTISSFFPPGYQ
T8 sequence (O75015 17-200 N65S limits assumed): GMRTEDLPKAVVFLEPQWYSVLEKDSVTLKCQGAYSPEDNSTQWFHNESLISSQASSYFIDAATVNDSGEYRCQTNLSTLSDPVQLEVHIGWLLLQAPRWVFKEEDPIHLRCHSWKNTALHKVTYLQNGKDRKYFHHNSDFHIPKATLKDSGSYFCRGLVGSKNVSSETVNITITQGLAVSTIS
Human CD64 (FcγRI), Sino Biological 10256-H08H, sequence (P12314 16-288 limits assumed): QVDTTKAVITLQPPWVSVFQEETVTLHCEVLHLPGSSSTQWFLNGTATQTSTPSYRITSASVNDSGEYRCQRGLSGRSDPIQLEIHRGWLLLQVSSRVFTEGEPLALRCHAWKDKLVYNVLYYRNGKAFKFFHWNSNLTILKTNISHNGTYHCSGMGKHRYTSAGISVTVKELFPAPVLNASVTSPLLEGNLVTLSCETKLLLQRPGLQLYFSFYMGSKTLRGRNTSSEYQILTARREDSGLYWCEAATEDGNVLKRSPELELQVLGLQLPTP
T7 sequence (P08637 17-208 limits assumed): as the sequence (P08637 17-208 F176V limits assumed) above, with V160F counted along it

B1: MAB1 IgG1 (antibody)
heavy: not shown
light: EIVLTQSPATLSLSPGERATLSCRASSSVSYMHWYQQKPGQAPRPWIYATSNRATGIPARFSGSGSGTDYTLTISSLEPEDFAVYYCQQFGAWPWTFGQGTKVEIKRTVAAPSVFIFPPSDEQLKSGTASVVCLLNNFYPREAKVQWKVDNALQSGNSQESVTEQDSKDSTYSLSSTLTLSKADYEKHKVYACEVTHQGLSSPVTKSFNRGEC
notes: Human IgG1, kappa
- EC50, inhibition of T cell proliferation [1]: 0.17 nM and 0.24 ug/ml
- Fold change to GBR 830, proliferation EC50 [1]: 33 fold
- average proliferation index (Av), coated T cell agonism assay [2]: 0.97
- EC50 (read off the curve) [3]: ~0.09 µg/mL
- EC50 (read off the curve) [4]: ~0.4 nM
- Kd (human OX40-CRD-avi-his [5]): 6 nM
- koff (human OX40-CRD-avi-his [5]): 0.00163 s⁻¹
- kon (human OX40-CRD-avi-his [5]): 274000 M⁻¹ s⁻¹
- Kd (cynomolgus OX40-ECD-his [6]): 557 nM
- koff (cynomolgus OX40-ECD-his [6]): 0.0405 s⁻¹
- kon (cynomolgus OX40-ECD-his [6]): 72700 M⁻¹ s⁻¹
- Kd [7]: 6.8 nM
- koff [7]: 0.0016 s⁻¹
- kon [7]: 230000 M⁻¹ s⁻¹
- ADCC EC50, in vitro differentiated Tregs [8]: 0.089 nM and 0.015 µg/mL
- Fold Change to GBR 830, ADCC EC50, Tregs [8]: 74 fold
- fold increase in binding affinity against GBR830 [9]: 8 fold
- ADCC EC50, activated T cells [10]: 0.026 nM and 0.004 ug/ml
- Fold Change to GBR 830, ADCC EC50, activated T cells [10]: 3.25 fold
- fold decrease in ADCC of activated T cells against KHK4083 [11]: 3 fold

B2: GBR 830 (telazorlimab) (antibody, human IgG1, kappa)
heavy: not shown
light: EIVLTQSPATLSLSPGERATLSCRASSSVSYMHWYQQKPGQAPRPWIYATSNRATGIPARFSGSGSGTDYTLTISSLEPEDFAVYYCQQWSSNPWTFGQGTKVEIKRTVAAPSVFIFPPSDEQLKSGTASVVCLLNNFYPREAKVQWKVDNALQSGNSQESVTEQDSKDSTYSLSSTLTLSKADYEKHKVYACEVTHQGLSSPVTKSFNRGEC
notes: IgG1; also called Antibody 830; ISB830
- EC50, inhibition of T cell proliferation [1]: 5.67 nM and 0.833 ug/ml
- average proliferation index (Av), coated T cell agonism assay [2]: 0.98
- EC50 (read off the curve) [3]: ~0.3 µg/mL
- Kd (cynomolgus OX40-ECD-his [12]): 5000 nM and 3000 nM
- Kd (human OX40-CRD-avi-his [5]): 80.4 nM
- koff (human OX40-CRD-avi-his [5]): 0.00654 s⁻¹
- kon (human OX40-CRD-avi-his [5]): 81300 M⁻¹ s⁻¹
- Kd (cynomolgus OX40-ECD-his [6]): 3040 nM
- Kd (human OX40-CRD-avi-his [13]): 80 nM
- Kd [7]: 59.3 nM
- koff [7]: 0.0086 s⁻¹
- kon [7]: 150000 M⁻¹ s⁻¹
- ADCC EC50, in vitro differentiated Tregs [8]: 0.833 nM and 0.121 µg/mL
- ADCC EC50, activated T cells [10]: 0.078 nM and 0.13 ug/ml

B3: MAB10 (antibody, human IgG1, kappa)
heavy: QVTLKESGPALVKPTQTLTLTCSFSGFSLSTSGMGVGWIRQPPGKALEWIAHIWWDDDKYYNTALKTRLTISKDTSKNQVVLTMTNMDPVDTATYYCARIDWDGFAYWGQGTLVTVSSASTKGPSVFPLAPSSKSTSGGTAALGCLVKDYFPEPVTVSWNSGALTSGVHTFPAVLQSSGLYSLSSVVTVPSSSLGTQTYICNVNHKPSNTKVDKKVEPKSCDKTHTCPPCPAPELLGGPSVFLFPPKPKDTLYITREPEVTCVVVDVSHEDPEVKFNWYVDGVEVHNAKTKPREEQYNSTYRVVSVLTVLHQDWLNGKEYKCKVSNKALPAPIEKTISKAKGQPREPQVYTLPPSRDELTKNQVSLTCLVKGFYPSDIAVEWESNGQPENNYKTTPPVLDSDGSFFLYSKLTVDKSRWQQGNVFSCSVMHEALHNHYTQKSLSLSPGK
light: EIVLTQSPATLSLSPGERATLSCRASSSVSYMHWYQQKPGQAPRPWIYATSNRATGIPARFSGSGSGTDYTLTISSLEPEDFAVYYCQQFGAWPWTFGQGTKVEIKRTVAAPSVFIFPPSDEQLKSGTASVVCLLNNFYPREAKVQWKVDNALQSGNSQESVTEQDSKDSTYSLSSTLTLSKADYEKHKVYACEVTHQGLSSPVTKSFNRGEC
notes: MAB1 with M252Y, S254T and T256E (EU numbering) in the IgG1 Fc; also called MAB1 Heavy Chain + YTE
- fold-change of KD relative to MAB1 [14]: 2.7 fold
- fold-change of KD relative to MAB1 [15]: 3.1 fold
- fold-change of KD relative to MAB1 [16]: 1.6 fold
- fold-change of KD relative to MAB1 [17]: 3 fold
- fold-change of KD relative to MAB1 [18]: 4.3 fold
- EC50 (read off the curve) [4]: ~0.7 nM
- fold EC50 against human OX40 (rabbit (rb) OX40 protein): 8 fold
- fold EC50 against human OX40 [19]: 4 fold
- Kd [7]: 7.2 nM
- koff [7]: 0.0016 s⁻¹
- kon [7]: 230000 M⁻¹ s⁻¹
- fold increase in binding affinity against GBR830 [9]: 8 fold
- EC50 (inhibition) of NFκB signaling, Jurkat-NFκB-OX40 cells, 0.07 µg/mL OX40L [11]: 0.79 nM
- EC50 (inhibition) of NFκB signaling, Jurkat-NFκB-OX40 cells, 5 µg/mL OX40L [11]: 4.59 nM
